Reference: patent US20050175719A1, “Procyanidins for treatment and prevention of enzymatic irritation to the skin” (priority 2004, published 2005)

B1: Lactoferrin: commonly used antioxidant (protein, UniProt P02788 20-710, looked up)
Lactotransferrin: GRRRSVQWCAVSQPEATKCFQWQRNMRKVRGPPVSCIKRDSPIQCIQAIAENRADAVTLDGGFIYEAGLAPYKLRPVAAEVYGTERQPRTHYYAVAVVKKGGSFQLNELQGLKSCHTGLRRTAGWNVPIGTLRPFLNWTGPPEPIEAAVARFFSASCVPGADKGQFPNLCRLCAGTGENKCAFSSQEPYFSYSGAFKCLRDGAGDVAFIRESTVFEDLSDEAERDEYELLCPDNTRKPVDKFKDCHLARVPSHAVVARSVNGKEDAIWNLLRQAQEKFGKDKSPKFQLFGSPSGQKDLLFKDSAIGFSRVPPRIDSGLYLGSGYFTAIQNLRKSEEEVAARRARVVWCAVGEQELRKCNQWSGLSEGSVTCSSASTTEDCIALVLKGEADAMSLDGGYVYTAGKCGLVPVLAENYKSQQSSDPDPNCVDRPVEGYLAVAVVRRSDTSLTWNSVKGKKSCHTAVDRTAGWNIPMGLLFNQTGSCKFDEYFSQSCAPGSDPRSNLCALCIGDEQGENKCVPNSNERYYGYTGAFRCLAENAGDVAFVKDVTVLQNTDGNNNEAWAKDLKLADFALLCLDGKRKPVTEARSCHLAMAPNHAVVSRMDKVERLKQVLLHQQAKFGRNGSDCPDKFCLFQSETKNLLFNDNTECLARLHGKTTYEKYLGPQYVAGITNLKKCSTSPLLEACEFLRK
B2: STI: pure serine protease inhibitor (soybean trypsin inhibitor) from Sigma, used as positive control (protein, UniProt P01070 25-205, looked up)
Trypsin inhibitor A: DFVLDNEGNPLENGGTYYILSDITAFGGIRAAPTGNERCPLTVVQSRNELDKGIGTIISSPYRIRFIAEGHPLSLKFDSFAVIMLCVGIPTEWSVVEDLPEGPAVKIGENKDAMDGWFRLERVSDDEFNNYKLVFCPQQAEDDKCGDIGISIDHDDGTRRLVVSKNKPLVVQFQKLDKESL

Tested on: trypsin
Test: Inhibition of trypsin-induced cleavage of fluorescent BODIPY FL casein (EnzChek protease assay kit)
Type: biochemical
Description: The procedure of Example 1 was independently repeated using the procyanidin-containing grape seed extract and STI, respectively, at 0.1% concentration. In addition, the procedure of Example 1 was repeated on the five individual monomer units typically found in OPC, at up to three different concentration levels.

Row | Molecule | trypsin inhibition activity (in words) (at concentrations up to 0.1%) | % trypsin inhibition (concentration 0.001 % (w/w)) [%] | % trypsin inhibition (concentration 0.01 % (w/w)) [%] | % trypsin inhibition (concentration 0.1 % (w/w)) [%] | % trypsin inhibition (Table 4, concentration (w/w) 0.1 %) [%] | % trypsin inhibition (concentration 0.0005 % (w/w)) [%] | % trypsin inhibition (concentration 0.0025 % (w/w)) [%] | % trypsin inhibition (concentration 0.005 % (w/w)) [%] | % trypsin inhibition (concentration 0.025 % (w/w)) [%] | % trypsin inhibition (concentration 0.05 % (w/w)) [%] | % trypsin inhibition (concentration 0.075 % (w/w)) [%]
1 | B1 | no trypsin inhibition activity | −2 | −4 | 0 |  |  |  |  |  |  | 
2 | B2 |  | 30 | 74 |  | 89 | 17 | 44 | 55 | 85 | 87 | 63
